Measured values taken from article doi:10.1101/2020.09.09.273011.

Experiments:
[1] = target: ΔEGF/Lam_Celsr3 (Celsr3-Flag lacking all the EGF repeats and Laminin domains) (mouse) (UniProt Q91ZI0); experiment: co-IP
[2] = target: ΔLaminin G1_Celsr3 (Celsr3-Flag lacking the Laminin G1 domain) (mouse) (UniProt Q91ZI0); experiment: co-IP

B1: mouse Frizzled3 (Frizzled3-HA) (receptor)
chain: HSLFSCEPITLRMCQDLPYNTTFMPNLLNHYDQQTAALAMEPFHPMVNLDCSRDFRPFLCALYAPICMEYGRVTLPCRRLCQRAYSECSKLMEMFGVPWPEDMECSRFPDCDEPYPRLVDLNLVGDPTEGAPVAVQRDYGFWCPRELKIDPDLGYSFLHVRDCSPPCPNMYFRREELSFARYFIGLISIICLSATLFTFLTFLIDVTRFRYPERPIIFYAVCYMMVSLIFFIGFLLEDRVACNASSPAQYKASTVTQGSHNKACTMLFMVLYFFTMAGSVWWVILTITWFLAAVPKWGSEAIEKKALLFHASAWGIPGTLTIILLAMNKIEGDNISGVCFVGLYDVDALRYFVLAPLCLYVVVGVSLLLAGIISLNRVRIEIPLEKENQDKLVKFMIRIGVFSILYLVPLLVVIGCYFYEQAYRGIWETTWIQERCREYHIPCPYQVTQMSRPDLILFLMKYLMALIVGIPSIFWVGSKKTCFEWASFFHGRRKKEIVNESRQVLQEPDFAQSLLRDPNTPIIRKSRGTSTQGTSTHASSTQLAMVDDQRSKAGSVHSKVSSYHGSLHRSRDGRYTPCSYRGMEERLPHGSMSRLTDHSRHSSSHRLNEQSRHSSIRDLSNNPMTHITHGTSMNRVIEEDGTSA
percent reduction of the interaction against wild type Celsr3 [1]: 68% | percent reduction of the interaction against wild type Celsr3 [2]: 66%
